assay: yeast display, Sf9 membrane polyspecificity reagent, FACS + sequencing; frameworks hold sequencing errors
Method in brief: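 Synthetic nanobody libraries on Saccharomyces cerevisiae BJ5465 were galactose-induced for 36–48 hours, stained 1 hour at 4 °C with 10% biotinylated, detergent-solubilized Sf9 membrane reagent and enriched on streptavidin microbeads. FACS then separated cells into low and high (top ~1%) gates by anti-HA (expression) and streptavidin (reagent binding) fluorescence. Genes were colony-PCR amplified, MiSeq 2 × 250 sequenced and CDR-length filtered. A clone's polyreactivity label is that of its gate of origin.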

Row | Sequence | polyreactivity (PSR sort gate)
1 | QVQLVESGGGLVQAGGSLRLSCAASGSIFYHNAMGWYRQAPGKERELVAAITWSGSTTYYADSVKGRFTISRDYAKNTVYLQMNSLKPEDTAVYYCNAGNRHGHYDYYWGQCTQVTVSS | low polyreactivity
2 | QVQLVESGGGLVQAGGSLRLSCAASGSIFYHYSMGWYRQAPGKERELVAAITRSGGSTYYADSVKGRFTISRDNAKNTVFLQMNSLNPEDTAVYYSAKDPDSYNFLTSNWYDYWGLGTQVTVSS | low polyreactivity
3 | QVQLVESGGGLVQAGGSLRLSCAASGSIFYIYAMVWYRQAPGKERELVATITRGGSSYADSVKGRFTISRDNAKNTVYFQMNSLIPEDTAVYYCAADVFKYWSQQTSTVYDYWGQGTQVTVSS | high polyreactivity
4 | QVQLVESGGGLVQAGGSLRLSCAASGSIFYKYMGWNRQAPGKERELVAAISWSGGRTYYADSVKGRFTISRDNAKNTVYLQMNSLKPEDTAVYYCNRVVLWRIGDKAFEYWGQGTQVTVSS | high polyreactivity
5 | QVQLVESGGGLVQAGGSLRLSCAASGSIFYLNAMGWYRMAPGKERELVATISNGGSTNYADSVKGRFTISRDNAKNTVYLQMNSLKPEDTAVYYCAAASGGTVVGEGDYWGQGTQVTVSS | low polyreactivity
6 | QVQLVESGGGLVQAGGSLRLSCAASGSIFYLNAMGWYRQAPGKERELVAAITNGGSTYADSVKGRFTISRDNAKNTVYLQMNSLKPEDTAGYYCATRSWELGDYWGQGTQVTVSS | low polyreactivity
7 | QVQLVESGGGLVQAGGSLRLSCAASGSIFYLYAMGLYRQAPGKERELVAAITSIGGSTYADSVKGRFTISRDNAKNTVYLQMNSLKPEDTAVYYCNTDEYPLTVQVQYYYWGQGTQVTVSS | low polyreactivity
8 | QVQLVESGGGLVQAGGSLRLSCAASGSIFYLYAMGWYRPAPGKERELVARITIRGGSTYYADSVKGRFTISRDNAKNTVYLQMNSLKPEDTAVYYCAARRPYGDYDYWGQGTQVTVSS | high polyreactivity
9 | QVQLVESGGGLVQAGGSLRLSCAASGSIFYLYAMGWYRQAPGKERELVAAISSGGSTNYADSVKGRFTISRDNAKNTVYLQMNSLKPEDTAVYYCAAGYKRLHWPKSDSFHGMYYWGQGTQVTVSS | low polyreactivity
10 | QVQLVESGGGLVQAGGSLRLSCAASGSIFYLYAMGWYRQAPGKERELVAAISWSTSGTYYADSVKGRFTISRDNAKNTVYLQMNSLKPEDTAVYYCAADVYSPWWYDYWGQGTQVTVSS | high polyreactivity
11 | QVQLVESGGGLVQAGGSLRLSCAASGSIFYLYAMGWYRQAPGKERELVAAITSIGGSTYADSVKGRFTISRDNAKNTVYLQMNSLKPEDTALYYCNTDEYPLTVQVQYYYWGQGTQVTVSS | low polyreactivity
12 | QVQLVESGGGLVQAGGSLRLSCAASGSIFYLYAMGWYRQAPGKERELVAAITWRGGITNYADSVKGRFTISRDNAKNTVYLQMNSLKPEDTAVYYCAADPYRFLATELYYWGQGTQVTVSS | low polyreactivity
13 | QVQLVESGGGLVQAGGSLRLSCAASGSIFYLYAMGWYRQAPGKERELVASISSDGSTNYADSVKGRFTISRDNAKNTVYLQMNSLKPEDTAVYYCAADEGTGQASLSSNLYDYWGQGTQVTVSS | low polyreactivity
14 | QVQLVESGGGLVQAGGSLRLSCAASGSIFYLYAMGWYRQAPGKERELVASISWGDSSTYYADSVKGRFTISRDNAKNTVYLQMNSLKPEDTAVYYCAADEYRQYALYDYWGQGTQVTVSS | low polyreactivity
15 | QVQLVESGGGLVQAGGSLRLSCAASGSIFYLYAMGWYRQAPGKERELVATITASGGSTNYADSVKGRFTISRDNAKNTVYLQMNSLKPEDTAVYYCAAEYYYLVYYYKEIVAYDYWGQGTQVTVSS | high polyreactivity
16 | QVQLVESGGGLVQAGGSLRLSCAASGSIFYLYAMGWYRQAPGKETEVVAAITSIGGSTYADSVKGRFTISRDNAKNTVYLQLNSLKPDDTAVYYCNTDVYPLTVQVQYYYWGQGTQVTVSS | low polyreactivity
17 | QVQLVESGGGLVQAGGSLRLSCAASGSIFYLYTMGRYRQAPGKERELVAAITNGGSTDYADSVKGRFTISRDNAKNTVYLQMNSLKPEDTAVYYCNADPRYPVDELEYWVTTPYDYWGQGTQVTVSS | low polyreactivity
18 | QVQLVESGGGLVQAGGSLRLSCAASGSIFYLYTMGWYRQAPGKERELVASITYSGGTYYADSVKGRFTISRDNAKNTVYLQINSLKPEDTAVYYCNADASYYLDDEYDYWGQGTQVTVSS | low polyreactivity
19 | QVQLVESGGGLVQAGGSLRLSCAASGSIFYNAMGWYRQAPGKERELVASISWSGGTSTYYADSVKGRFTISRDNAKNTVYLQMNSLKPEDTAVYYCAKASRYSSYWMYYWGQGTQVTVSS | high polyreactivity
20 | QVQLVESGGGLVQAGGSLRLSCAASGSIFYNNAMGWYRQAPGKERELVATIRRSGGSTYYADSVKGRFTISRDNAKNTVYLQMNSLKPEDTAVYYCAADYTPDLLSKVDYWGQGTQVTVSS | low polyreactivity

Row | Sequence | polyreactivity (PSR sort gate)
21 | QVQLVESGGGLVQAGGSLRLSCAASGSIFYNYAMGWYRQAPGKEREFVAAISRSGGSTYYADSVKGRFTISRDNAKNTVYLQMNSLKPEDSAVYYCAASTRYSAFYPYGYWGQGTQVTVSS | high polyreactivity
22 | QVQLVESGGGLVQAGGSLRLSCAASGSIFYNYAMGWYRQAPGKERELVAAISGSGGSTYYADSVKGRFTISRDNAKNTVYGQMNSLKPEDTAVYYCSTSGPQYYSRNFDYWGQGTQVTVSS | low polyreactivity
23 | QVQLVESGGGLVQAGGSLRLSCAASGSIFYPNAMGWYRQAPGKERELVAAINGGGSTYYADSVKGRFTISRDNAKNTVYLQMNSLKPEDTAVYYCAADSNDVYYDTPSYDYWGQGTQVTVSS | low polyreactivity
24 | QVQLVESGGGLVQAGGSLRLSCAASGSIFYPNAMGWYRQAPGKERELVAVITGGATTYYADSVKGRFTISRDNAKNTVYLQMNSLKPEDTAVYYCAADSAENVYRGYYWGQGTQVTVSS | low polyreactivity
25 | QVQLVESGGGLVQAGGSLRLSCAASGSIFYPNAMGWYRQAPGKESELVAAISSSGGTNYADSVKGRFTISRDNAKNTVYLQMNSLKPEDTAVYYCAADIRSNRLYDGGYWGQGTQVTVSS | low polyreactivity
26 | QVQLVESGGGLVQAGGSLRLSCAASGSIFYPYAMGWYRKAPGKERELVASITINDGSTYYADSVKGRFTISRDNAKHTFYLPMNRLIQEDPAVYYCNVDPVPGFGSVYEYWGQGTQVTVSS | low polyreactivity
27 | QVQLVESGGGLVQAGGSLRLSCAASGSIFYPYAMGWYRQAPGKERELVAAIRNGGSTYYADSVKGRFTISRDNAKNTVYLHMNSLKPEDTAVYYCAASVRRRHPFEYWGQGTQVTVSS | high polyreactivity
28 | QVQLVESGGGLVQAGGSLRLSCAASGSIFYPYAMGWYRQAPGKERELVAAISWSGTRTYYADSVKGRFTISRDNAKNTVYLQMNSLKPEDTAVYYCAAYLPGYREQVDTNSWGQGTQVTVSS | low polyreactivity
29 | QVQLVESGGGLVQAGGSLRLSCAASGSIFYQNARGWYRQAPGKERELVAAISISDGSTYYADSVNGRFTISRDNAKNTVYLQMNILKPEDTAVYYCNADSLYYDPYDYWGQGTQVTVSS | low polyreactivity
30 | QVQLVESGGGLVQAGGSLRLSCAASGSIFYQYAMGWYRQAPGKERELVAAISVRAGITYYADSVKGRFTISRDNAKNTVYLQMNSLKPEETAVYYGAKDHWTTSYDEGDYWGQGTQVTVSS | low polyreactivity
31 | QVQLVESGGGLVQAGGSLRLSCAASGSIFYRNAMGCSRQARGKERELVAAISSSGTRTYYADSVKGRFTISRDNAKNTVYLQMNILKPEDTAVYYCAAGVVLWYRRRYYYWGQGTQVTVSS | high polyreactivity
32 | QVQLVESGGGLVQAGGSLRLSCAASGSIFYRNAMGWYRQAPGKERELVAAISWSGASTSYADSVKGRFTISPDNAKNTVYLQMNSLIPDATAVYYCNAGKYAYLWLKLFAPKLDYWGQGTQVTVSS | low polyreactivity
33 | QVQLVESGGGLVQAGGSLRLSCAASGSIFYRNAMGWYRQATGKERELVAAISASGGSTYYADSVKGRFTISRDNAKNTVYLQINSLKPEDTAVYYCAVEYRKSRSYYPYYYWGQGTQVTVSS | high polyreactivity
34 | QVQLVESGGGLVQAGGSLRLSCAASGSIFYRNDMGWYRQAPGKERELVAAITWSGVNTYYADSVKGRFTISRDNAKNTVYLQMNSLKPEDTAVYYCAVPSRYWLNRGFDYWGQGTQVTVSS | low polyreactivity
35 | QVQLVESGGGLVQAGGSLRLSCAASGSIFYRNVMGWYRQAPGKERELVASINFSGGSTYYADCVKGRFTISRDNAKNTVYLQMNSLKPEDTAVYYCAARTVHIYTRMYYWGQGTQVTVSS | high polyreactivity
36 | QVQLVESGGGLVQAGGSLRLSCAASGSIFYRNVMGWYRQAPGKERELVATISRGGTSNYADSVKGRFTISRDNAKNTVYLQMNSLKPEDTAVYYCAAPIGDVYVGKGYDSWGQGTQVTVSS | low polyreactivity
37 | QVQLVESGGGLVQAGGSLRLSCAASGSIFYRYAIGWYRHPPGKERELVAAITRGGTTYYADSVKGRFTISRDNAKNTVYLQMNSLKPEDSAVYYCAARLRYTTVIYYYWGQGTQVTVSS | high polyreactivity
38 | QVQLVESGGGLVQAGGSLRLSCAASGSIFYRYAMGWNRQAPGKERELVATITQSGVSTYYADSEKGRFTISRDNAKNTVYLQMNSLKPEDTAVYYCAASYYYTIGPYFRKFDWGQGTQVTVSS | low polyreactivity
39 | QVQLVESGGGLVQAGGSLRLSCAASGSIFYRYAMGWSRQAPGKERELVAAISSGSSTHYADSVKGRFTMSRDNAKNTVYLQMNSLKPEDTAVYYCAARYRAYTSTRRFDYWGQGTQVTVSS | high polyreactivity
40 | QVQLVESGGGLVQAGGSLRLSCAASGSIFYRYAMGWYRQAPGKERELVAAIRWSGGSTYYADSVKGRFTISRDNAKNTVYLQMNSQKPEDTAVYYCATEVSYGGYWSWYGYWGQGTQVTVSS | low polyreactivity

From the nanobody polyreactivity screen of Harvey et al. (2022)
